The target of the test is Nsp3 ADRP (SARS-CoV-2) (UniProt P0DTD1). Briefly: fluorescence polarisation. (In general: Fluorescence polarisation rises when a labelled molecule tumbles more slowly, as on binding a larger partner.)

Usually Kd stands for the free concentration of one partner at which half of the binding sites on the other are occupied at equilibrium, for simple one-to-one binding.

B1: PARP10_(700–715) (peptide)
peptide: DGGTDGKAQLVVHSA
As to B1, the Kd was found to be 300 µM.

The record behind these values is paper PMC10499821.
